Reference: patent US20130347134A1, “TRANSGENIC VON WILLEBRAND FACTOR ANIMALS AND USES THEREOF” (priority 2012, published 2013)

Test system: murine platelets
Assay: In vitro flow chamber, mouse platelets on recombinant VWF-A1, 800 s^-1
Assay type: cell-based
Conditions: wall shear rate 800 s^−1
Procedure: The protein was subsequently used in a series of in vitro flow chamber assays to assess function. Washed human or murine platelets (5×10^7/ml) were infused through a parallel plate flow chamber containing glass cover slips coated with either human VWF-A1 or mouse VWF-A1 protein (100 μg/ml final concentration) at a shear rate of 800 s^−1. After 5 minutes of continuous flow, adherent platelets were quantified.
In the case of the latter, the murine A1 fragment was inserted into pET-11b (Stratagene) and purified as previously described (Miura et al., 2000).
Support for this hypothesis is provided by mutagenesis studies. By analyzing the data obtained from the crystal structure of the murine VWF-A1 domain, the inventors have identified several residues that may participate in interactions with GPIb α (FIG. 15C). Residue 1326 was initially chosen for study and was mutated to the corresponding amino acid at the identical location in its human counterpart (from Arg to His). Subsequently, the ability of murine and human platelets to interact with this mutant protein substrate was evaluated at a wall shear rate of 800 s^−1. Incorporation of a histidine for arginine at position 1326 in murine VWF-A1 reduced murine platelet adhesion by about 5-fold and increased translocation velocities of cells by about 7-fold as compared to the WT mouse protein (FIGS. 13 and 16). […]

B1: His-tag M VWF-A1: recombinant murine VWF-A1 with N-terminus His tag (protein)
chain: QEPGGLVAPPTDAPVSSTTPYVEDTPEPPLHNFYCSKLLDLVFLLDGSSMLSEAEFEVLKAFVVGMMERLHISQKRIRVAVVEYHDGSRAYLELKARKRPSELRRITSQIKYTGSQVASTSEVLKYTLFQIFGKIDRPEASHITLLLTASQEPPRMARNLVRYVQGLKKKKVIVIPVGIGPHASLKQIRLIEKQAPENKAFLLSGVDELEQRRDEIVSYLCDLAPEAPAPTQPP
  platelets that adhered to and translocated: 449±53 platelets/mm^2
